According to the DeepSol protein solubility set:

Test: soluble on expression in E. coli; label from the status in PepcDB or PDB records

Row | Sequence | soluble on expression in E. coli
1 | MGSDKIHHHHHHMFSGIAHCADCGSKLYYCTTRYFETRHDHFRCSASQKAVDPCTSHFIRAVVLEEMVLAHMRYVIGFVQRYEDSFRVSIEAERSTEIQKELSAKRKQIAQSQKRVDDLDVLFRKVYEDNASGKLTDERFMQLSRGYDLEQKTLRQMITMLEKEIDQQEQKTTQVEDFIAKCKRYSSLETLTPAILNDLVIKVFVEAPDKSTGKRRQGIHISYNLVGILPPLERFQPVVVERPNKEKAETA | not soluble
2 | MGSDKIHHHHHHAACADNADLNEPAGSTTPPAQVLNATVKNLPGAAIIYYDLPDDQNLKYVRASYKVDNMVRTVNASFYTDSLVVEGFPTKGEYDIELYSVSYGEVVSSPLVVKVNPDTPPYQKVRGTLVSAETFGGIRVNFDNPEKAKLGLGVIKKQAEGIWTQVYMHYTEAKGGDFYVRGLDAVTTDFGIFVRDRWGHLSDTLYVTETPLYEEQCDKSLFRKMALPTDSYECHSWNEVTKGNDMTRLWDGITDADPCFQTKTTTVMPQWFTFDMGENYKLSRFVMVSRYYPGKYGNTFKAGHPKHFEIWGSINPNPDGSFDDSWVLLSEYESVKPSGGGVNDALTAEDQEAAKNGENFIIPDNAPAVRYIRFRTNNTWGNTRYMHLHELTFFGAKHN | not soluble
3 | MAHHHHHHMATISRRDGRTAREMRGKELRTSDLSQFDGSAWYSQGLTAVTVAINGPTAARQENYRRCTTCIHVNRAARIPQEGGTGRLIMMERRERERCEDGELKQFLTSLVEAIVCLDRFPRCVLEAHVTVLMDDGALFAVASNAIMCALLDAGVPCRSTIAAVSLIMCNPEASGNEGEPEIFLDPTAVEESTDEVRSYASATFVLTNTGGEAVLASRVQARPRSSAYSRPITPKDLSRMFALAAKAAETLFVFFRNCSMALE | not soluble
4 | MAHHHHHHMKLFLTVVERHNSTNSSDVTPTDDVALFDPGVWSRTATSEMARRNVSASYVAQQVYRHAALTQLAKVALSSAVCFRYGPRPPPHLDSFLFHKRCRPTGHGRCGTPPAAAAPPVCAPSPLISSSSSSFSVNMAATSPGTGQQRSTAAGASDSATEYDSLLALWLRELLSGTDSSVTVTALLLFVEGTAIDMATGSKVHTPLNIGSGTARQLRTHEDAMAFLHACESTLHHSAAEFPRCPYHVCVAVLVGTHGGSHGKNPVIFLDVAAAAPESAGAHQEVRLREQVALFGRQLGADATTATPHARQRTRKAEDEQWLSLLQSCQLSRASLVGLVYVACEAGHDPFGHSRVEGTDCDPFTLASVLRQRALLEAVNNGVLHPQLRKLSRARNRATARAVKLPASGATTRSRAPASPLKGRPSRGRQRPQQHSPKLPYLARDSVPPRRTQEHSIVFYGVSRCGRSADLLARIEEEEHHARVALSSAEQRAWNLAELRWILRAHPPGKSIDAMLRRFAHNVDGVSRPEQQHPHSVPPRFLPPPLNVAQLATAISRPSTTATRRSSFASATRTPESTSPGGTVRTRVTASMLPTSPSRLALTSTFFTRRITTPLFFREAGSPPQNQDDPRAHSASSHVAVRGHNATELERRRLKSGATFSLATDSPNARACTTARRLSAIETALLARAHSSSQRSLPSPSPCTGEVERLYPLVRAFHVEMCEQDALMAEELMMRSCIEHKEKNCRKTLSVARAESVRRLSVWWPSETGTQPQREPQVPDSPRWRPAKPLPLRIFFQQ | not soluble
5 | GMTKPKEPTALDLPMADPLPDETQKYFEICQEKLGMVPNVLKAYAFNVEKLNAFTAMYNDLMLGESQLSKLEREMIAVVVSSINKCFYCLVAHGAAVRQLSGDPQLGEMLVMNYRVAPLDARQRVMLDFAAKMTRASAEIEEADREVLRSHGFNDRDIWDIANVTGFFNMTNRVASATAMMPNAEYHGQFR | soluble
6 | GSGNRTRKRRMINASVWMPPMENEEKNRKNHQSITSSQHSLLEASYDGYIKRQRNELQHYSLYPNPQGYGNGNDFLGDFNHTNLQIPTEPEPESPIKLHTEAAGSYAITEPITRESVNIIDPRHNRTVLHWIASNSSAEKSEDLIVHEAKECIAAGADVNAMDCDENTPLMLAVLARRRRLVAYLMKAGADPTIYNKSERSALHQAAANRDFGMMVYMLNSTKLKGDIEELDRNGMTALMIVAHNEGRDQVASAKLLVEKGAKVDYDGAARKDSEKYKGRTALHYAAQVSNMPIVKYLVGEKGSNKDKQDEDGKTPIMLAAQEGRIEVVMYLIQQGASVEAVDATDHTARQLAQANNHHNIVDIFDRCRPERE | soluble
7 | MCARIQQLPVFFIFILYGSCATTKRNIYVLAINKLMEQQIRKYESFNDLPADCKKLFDSGEKDSFDLSRDWFLLLETTVIRQTKEICIFTLEIEGVTQGIWPTLLQKKGKLSLRQISSFTCFYSSLYQPLISSSLTVDKLADCLRWILSDTRTDVLRFDIMDPSQSSFNLHEQALKKIGFKTDRFFCWGNWYLPVNNQPFSVYLQNLSSRVRNTLERRKKKFLAGGHGKLEILTTHDKLPIAIQAWEKIYNASWKIPEPYPEFMPSLISLCAAKGWLRLGIAYYDEEPIAAQLWIVNQGRAAIYKLAYDEKFAHLSPGTILTAHLMQHAIDVDKVHEVDYLTGDDAYKKDWMSHRRERLGLVAYNLRSFWGLIGISKHIAGKIRKKILKSLK | not soluble
8 | MSIEWYAVHTLVGQEEKAKANLEKRIKAFGLQDKIFQVLIPTEEVVELREGGKKEVVRKKLFPGYLFIQMDLGDEEEPNEAWEVVRGTPGITGFVGAGMRPVPLSPDEVRHILEVSGLLGKKEAPKAQVAFREGDQVRVVSGPFADFTGTVTEINPERGKVKVMVTIFGRETPVELDFSQVVKA | soluble
9 | MGSDKIHHHHHHMKDNPISPTIPLDQDGVHHGFLKLPYSRDDSAWGSVMIPITVIQNGAGKTALLTGANHGDEYEGPVALQELAATTRAEDVTGRLIIVPYFNYPAFRASARTSPIDRGNLNRAFPGRPDGTVTQKIADYFQRTLLPMADVAVDFHSGGKTLDFVPFAAAHILEDKVLQDACFAAMQAFNAPYSVQLLEIDSEGMYDTAVEEMGKVLVTTELGGGGMSTARSNAIAKKGLRNVLIHFGILQGEMQIDPSVTLDMPDGDCYLFSEHDGLFEIMIDLGEPVQEGDLVARVWSPDRTGEAPVEYRARRSGVLISRHFPGMIKSGDCAAVIGVVEG | not soluble
10 | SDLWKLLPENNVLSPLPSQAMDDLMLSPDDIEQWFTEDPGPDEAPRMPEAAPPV | soluble
11 | MGSDKIHHHHHHMLTTGTTRITGDRKLNDLIGHLIDPQLVEVEAAPQIKAMATSRLNFKMQKQTQTNWCWAAVSASVGNFYRTGSWTQCGVASASLDRNCCNQPGPCNIYGYLDSALRITRSYNGMNRGSLQMSAIRNQIKKGRPIGLRCAWYGGGAHFLVIYGTDGDYLLIADSIYGYSTRALNSFPRLYKSGGNWTDTYFTVKK | not soluble
12 | MATFYEVIVRVPFDVEEHLPGISDSFVDWVTGQIWELPPESDLNLTLVEQPQLTVADRIRRVFLYEWNKFSKQESKFFVQFEKGSEYFHLHTLVETSGISSMVLGRYVSQIRAQLVKVVFQGIEPQINDWVAITKVKKGGANKVVDSGYIPAYLLPKVQPELQWAWTNLDEYKLAALNLEERKRLVAQFLAESSQRS | soluble
13 | MTSFDAIVIGGGHNGLVAAATLAKAGRKVLVLEAESEVGGAARTEEFAPGFRVSSIAHLLNRLHPDVVKTLELETHGLQFARADFLPSAALSKDGPALMLHGAYGEVLTGASPSEQSAWKDLRAQLLRYAGILKPFLTRRPPDLAGMSLMETASLGQTALALKKLGKEDMRDFLRVLLMNVADLLDEQLRDDRLKGLLAFDATLGSHLGPRSPTSLLGLYYRLAGEAGGAAGAQVLPQGGMGAVVAAIRAAAEKAGVTIRTSVAAAKIIVEKGHAVGVTLGTGEELRARTVVSAINPATTFLDLVGPREIDTGFVRKVKNIRMKGDAAKLHLALDRSPQFTGADAAAHKGRLVIAPSPDHVERAFNPCKYGEFSPEPVLEITLPSLADPSLAPDGACVLSAVVQYAPYALKEGWAAGKPKFIKAVMAQLEAYAPGIGKSVVHAELLTPADIETRYRMPGGHWHHGELQADQMLISRPVSGWSGYDTPVEGLFLAGAGSHPGGGVSGAPGLNAARRIIAMKGLEHHHHHH | soluble
14 | VIIDTSALLAYFDAAEPDHAAVSECIDSSADALVVSPYVVAELDYLVATRVGVDAELAVLRELAGGAWELANCGAAEIEQAARIVTKYQDQRIGIADAANVVLADRYRTRTILTLDRRHFSALRPIGGGRFTVIP | not soluble
